Several values for one entry are separate records, joined by “and”; a condition that tells them apart may be missing. Identical values can stand only once. Blank lines part the entries; values can stand above or below the binder they belong to.
Legend:
[1] = target: BSA (Calbiochem catalog #126593) (UniProt P02769 25-607); assay: SPR 25C pH 6.0 and 7.4
Method: (§1) The binding specificity of the '029, '761 and '767 clones to VISTA and to other high pI proteins was evaluated by SPR at neutral and acidic pH using a Biacore® T100 instrument (GE Healthcare). Protein A (ThermoFisher Scientific catalog #21181) was diluted to 20 ug/ml in 10 mM sodium acetate pH 4.5 and immobilized onto flow cells of a CM3 biosensor following the manufacturer's amine coupling protocol (GE Healthcare), targeting 800 RU immobilization density of Protein A per flow cell. SPR experiments were conducted at 25° C. using PBST (137 mM sodium chloride, 2.7 mM potassium chloride, 10 mM phosphate buffer, 0.05% Tween 20) running buffer at pH 7.4 and 6.0. Antibodies (formatted as IgG1.3 antibodies) were diluted to 50 nM in PBST pH 7.4, and were captured across active biosensor flow cells at 5 ul/min for 60 seconds. […] Two 15 second injections of 10 mM glycine pH 1.5 were used to regenerate the Protein A capture surface between assay cycles. Reference flow cell and 0 nM blank-subtracted sensorgrams were inspected using Biacore® T200 Evaluation Software v.2.0. The results are shown in […]

[2] = target: avidin (ThermoFisher Scientific catalog #21128) (UniProt P02701 25-152); assay: SPR 25C pH 6.0 and 7.4
Method: as §1

[3] = target: T1, monovalent hVISTA-ECD (human VISTA extracellular domain with His tail) (human, UniProt Q9H7M9 33-193); assay: SPR, pH 7.4
T1 construct: analyte flowed over captured antibody; also called huVISTA-His

[4] = target: T2, cyno VISTA-ECD (cynomolgus VISTA extracellular domain with His tail) (cynomolgus macaque, UniProt Q9H7M9 33-193 (human entry)); assay: SPR, pH 7.4
T2 construct: also called cyVISTA-His
T2 chain: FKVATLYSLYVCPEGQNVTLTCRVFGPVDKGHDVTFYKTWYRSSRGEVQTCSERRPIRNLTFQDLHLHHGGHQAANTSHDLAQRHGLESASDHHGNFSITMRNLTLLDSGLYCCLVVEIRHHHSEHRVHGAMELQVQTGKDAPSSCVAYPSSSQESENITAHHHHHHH

[5] = target: T1, monovalent hVISTA-ECD (human VISTA …); assay: SPR, pH 6.0
[6] = target: T2, cyno VISTA-ECD (cynomolgus VISTA …); assay: SPR, pH 6.0
[7] = target: T1, monovalent hVISTA-ECD (human VISTA …); assay: SPR, pH 7.4; remark: listed apart in the source
Method: (§2) Binding of several preparations of each of the '029 progeny clones and of the parent '029 antibodies, formatted as IgG1.3 antibodies, to human VISTA at pH 6.0 and 7.4 was measured by Surface plasmon resonance (SPR). SPR analysis was performed to measure koff and KD binding affinity measurements for VISTA Abs at acidic and neutral pHs using a Biacore® T100 instrument (GE Healthcare). Protein A (ThermoFisher Scientific catalog #21181) was diluted to 20 ug/ml in 10 mM sodium acetate pH 4.5 and immobilized onto flow cells of a CM5 biosensor following the manufacturer's amine coupling protocol (GE Healthcare), targeting 2,000 RU immobilization density of Protein A per flow cell. SPR experiments were conducted at 37° C. using PBST (137 mM sodium chloride, 2.7 mM potassium chloride, 10 mM phosphate buffer, 0.05% Tween® 20) running buffer at pH 7.4 and 6.0. Antibodies were diluted to 25 nM in PBST pH 7.4, and were captured across active biosensor flow cells at 5 ul/min for 60 seconds. […] Two 15 second injections of 10 mM glycine pH 1.5 were used to regenerate the Protein A capture surface between assay cycles. Rate constants ka (kₒₙ) and kd (koff) were derived from reference flow cell and 0 nM blank-subtracted sensorgrams, and were fit to a 1:1 binding model in Biacore® T200 Evaluation Software v.2.0. The affinity constant, KD was calculated as the ratio of rate constants koff/kₒₙ for each VISTA antibody.
(§3) This initial campaign led to pH-independent VISTA.4 variants with near equivalent koff at pH 6 and pH 7. In order to obtain an antibody that binds to hVISTA with high affinity at pH 6.0 and low affinity at pH 7.0, a new library based on consensus sequence of pH-independent VISTA.4 variants was designed and constructed, with amino acid residues in the loops substituted for charge amino acid residues (see Example 9), and screened via yeast surface display (see Example 9). The library was analyzed as previously described (see Example 9) and selected variants were reformatted as IgG1.3 for further analysis (Tables 26 and 27). SPR analysis was conducted on these variants using the conditions previously described in Example 9.

[8] = target: T1, monovalent hVISTA-ECD (human VISTA …); assay: SPR, pH 6.0, average
Method: as §2, with “antibody. […]” for “antibody.”

[9] = target: T1, monovalent hVISTA-ECD (human VISTA …); assay: SPR, pH 6.0; remark: listed apart in the source
Method: as §2, §3

[10] = target: T1, monovalent hVISTA-ECD (human VISTA …); assay: SPR, pH 7.4, average
Method: as §2
Some of the VISTA.4 mutants described above and new mutants were tested for binding to hVISTA, according to the methods described in Example 9. […] Antibody 41F11_VH_T28P/Y50W/S55E/D95H/L96E/P97E/Y100E; VK_A64G (P1-070976) is the only VISTA.4 derivative that is pH selective.

[11] = target: T1, monovalent hVISTA-ECD (human VISTA …); assay: SPR, pH 6.0; remark: listed apart in the source
[12] = target: T1, monovalent hVISTA-ECD (human VISTA …); assay: SPR, pH 7.4; remark: listed apart in the source
[13] = target: T1, monovalent hVISTA-ECD (human VISTA …); assay: SPR
Method: as §2

[14] = target: T1, monovalent hVISTA-ECD (human VISTA …); assay: SPR, pH 7.4; remark: listed apart in the source
Method: as §2

[15] = target: T1, monovalent hVISTA-ECD (human VISTA …); assay: SPR, pH 6.0; remark: listed apart in the source
Method: as §2

[16] = target: T1, monovalent hVISTA-ECD (human VISTA …); assay: SPR; remark: listed apart in the source

avidin (ThermoFisher Scientific catalog #21128), sequence (P02701 25-152 limits assumed): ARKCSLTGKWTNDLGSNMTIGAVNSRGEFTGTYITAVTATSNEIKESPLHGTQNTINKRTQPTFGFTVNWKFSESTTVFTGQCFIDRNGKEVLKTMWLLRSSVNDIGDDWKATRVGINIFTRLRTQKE
BSA (Calbiochem catalog #126593), sequence (P02769 25-607 limits assumed): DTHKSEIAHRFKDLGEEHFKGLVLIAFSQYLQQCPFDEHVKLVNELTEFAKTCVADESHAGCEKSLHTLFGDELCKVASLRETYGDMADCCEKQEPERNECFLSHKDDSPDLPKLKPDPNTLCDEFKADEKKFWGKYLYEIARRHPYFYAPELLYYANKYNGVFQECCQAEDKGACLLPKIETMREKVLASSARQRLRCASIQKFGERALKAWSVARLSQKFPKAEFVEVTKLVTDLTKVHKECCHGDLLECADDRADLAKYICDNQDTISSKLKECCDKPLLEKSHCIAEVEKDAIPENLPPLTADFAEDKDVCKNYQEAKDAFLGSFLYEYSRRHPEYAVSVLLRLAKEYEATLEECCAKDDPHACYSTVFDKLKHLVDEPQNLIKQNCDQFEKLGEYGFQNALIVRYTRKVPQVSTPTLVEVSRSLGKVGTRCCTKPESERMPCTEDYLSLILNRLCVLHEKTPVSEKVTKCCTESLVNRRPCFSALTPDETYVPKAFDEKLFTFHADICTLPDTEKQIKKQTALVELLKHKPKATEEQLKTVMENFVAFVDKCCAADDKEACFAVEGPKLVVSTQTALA

B2: P1-072315 (41F11_VH_T28P/Y50W/S55E/L96E/Y100E VK_A64G) (antibody, V domains shown)
VH: QVQLVESGGGLVKPGGSLRLSCAASGFPFSDYYMSWIRQAPGKGLEWVSWISNSGEPIYYADSVKGRFTISRDNAKNSLYLQMNSLRAEDTAVYYCARDEPGWEFDLWGRGTLVTVSS
VL: EIVLTQSPATLSLSPGERATLSCRASQSVSSYLAWYQQKPGQAPRLLIYDASNRATGIPARFSGSGSGTDFTLTISSLEPEDFAVYYCQQRNNWPRTFGQGTKVEIK
notes: Same variable-region description as P1-065333 under another ID; also called P1-072315-1
Kd [3]: 2.5 nM
koff [3]: 0.00079 s⁻¹
kon [3]: 320000 M⁻¹ s⁻¹
Kd [4]: 1.9 nM
koff [4]: 0.00068 s⁻¹
kon [4]: 350000 M⁻¹ s⁻¹
Kd [5]: 0.35 nM
koff [5]: 0.0015 s⁻¹
kon [5]: 4.2e+06 M⁻¹ s⁻¹
Kd [6]: 0.6 nM
koff [6]: 0.0016 s⁻¹
kon [6]: 2.7e+06 M⁻¹ s⁻¹

B4: P1-070976 (41F11_VH_T28P/Y50W/S55E/D95H/L96E/P97E/Y100E; Vk_A64G) (antibody, human IgG1, kappa, V domains shown)
VH: QVQLVESGGGLVKPGGSLRLSCAASGFPFSDYYMSWIRQAPGKGLEWVSWISNSGEPIYYADSVKGRFTISRDNAKNSLYLQMNSLRAEDTAVYYCARHEEGWEFDLWGRGTLVTVSS
VL: EIVLTQSPATLSLSPGERATLSCRASQSVSSYLAWYQQKPGQAPRLLIYDASNRATGIPARFSGSGSGTDFTLTISSLEPEDFAVYYCQQRNNWPRTFGQGTKVEIKR
notes: IgG1.3; also called P1-070976-7; acidic pH selective VISTA.4 progeny
Kd [8]: 23 nM
koff [8]: 0.0026 s⁻¹
kon [8]: 110000 M⁻¹ s⁻¹
Kd [9]: 15 nM
koff [9]: 0.0028 s⁻¹
kon [9]: 190000 M⁻¹ s⁻¹
Kd [3]: 2300 nM
koff [3]: 0.14 s⁻¹
kon [3]: 61000 M⁻¹ s⁻¹
Kd [4]: 5900 nM
koff [4]: 0.026 s⁻¹
kon [4]: 4400 M⁻¹ s⁻¹
Kd [5]: 13 nM
koff [5]: 0.0028 s⁻¹
kon [5]: 230000 M⁻¹ s⁻¹
Kd [6]: 24 nM
koff [6]: 0.0038 s⁻¹
kon [6]: 160000 M⁻¹ s⁻¹

B5: P1-065333 (41F11_VH_T28P/Y50W/S55E/L96E/Y100E VK_A64G) (antibody, human IgG1, kappa, V domains shown)
VH: QVQLVESGGGLVKPGGSLRLSCAASGFPFSDYYMSWIRQAPGKGLEWVSWISNSGEPIYYADSVKGRFTISRDNAKNSLYLQMNSLRAEDTAVYYCARDEPGWEFDLWGRGTLVTVSS
VL: EIVLTQSPATLSLSPGERATLSCRASQSVSSYLAWYQQKPGQAPRLLIYDASNRATGIPARFSGSGSGTDFTLTISSLEPEDFAVYYCQQRNNWPRTFGQGTKVEIKR
notes: IgG1.3; also called P1-065333-1; VISTA.4 pH-independent progeny
pH 6.0/7.4 KD [13]: 0.2
pH 6.0/7.4 kd [13]: 1.4
Kd [7]: 2.2 nM
koff [7]: 0.00094 s⁻¹
kon [7]: 430000 M⁻¹ s⁻¹
Kd [8]: 0.56 nM
koff [8]: 0.0015 s⁻¹
kon [8]: 2.7e+06 M⁻¹ s⁻¹
Kd [9]: 0.47 nM
koff [9]: 0.0018 s⁻¹
kon [9]: 3.8e+06 M⁻¹ s⁻¹
Kd [14]: 1.9 nM
kd improvement vs parent [14]: 1 fold
koff [14]: 0.00093 s⁻¹
kon [14]: 480000 M⁻¹ s⁻¹
Kd [15]: 0.38 nM
kd improvement vs parent [15]: 81.7 fold
koff [15]: 0.0013 s⁻¹
kon [15]: 3.4e+06 M⁻¹ s⁻¹
Kd [10]: 3.2 nM
koff [10]: 0.00078 s⁻¹
kon [10]: 240000 M⁻¹ s⁻¹
KD ratio (pH 7.4/pH 6.0) [16]: 7.3
Kd [11]: 0.434 nM
koff [11]: 0.00142 s⁻¹
kon [11]: 3.28e+06 M⁻¹ s⁻¹
Kd [12]: 3.17 nM
koff [12]: 0.000883 s⁻¹
kon [12]: 278000 M⁻¹ s⁻¹

Other lines, results leading:

binding result [1]: no binding (tested: <=10 RU, 100-10 nM)
binding result [2]: no binding (tested: <=10 RU, 100-10 nM)
B1: P1-068767.IgG1.3 (antibody, V domains shown)
VH: EVQLVESGGGLVQPGKSLRLSCAASGFTLEDYAMHWVRQAPGKGLEWVSGIDWNSENIGYADSVKGRFTISRDNAKNSLYLQMNSLRTEDTALYYCAKVPGYSGGWIDAEDDWGQGTMVTVSS
VL: not shown
notes: also called P1-068767 hIgG1.3f; VISTA.18

Kd [7]: 1.7 nM
koff [7]: 0.00093 s⁻¹
kon [7]: 550000 M⁻¹ s⁻¹
Kd [8]: 40 nM
koff [8]: 0.033 s⁻¹
kon [8]: 830000 M⁻¹ s⁻¹
Kd [9]: 38 nM
koff [9]: 0.086 s⁻¹
kon [9]: 2.3e+06 M⁻¹ s⁻¹
Kd [10]: 4 nM
koff [10]: 0.00091 s⁻¹
kon [10]: 230000 M⁻¹ s⁻¹
Kd [11]: 17.4 nM and 16.6 nM
koff [11]: 0.0403 s⁻¹ and 0.0395 s⁻¹
kon [11]: 2.31e+06 M⁻¹ s⁻¹ and 2.37e+06 M⁻¹ s⁻¹
Kd [12]: 4.48 nM and 4.19 nM
koff [12]: 0.00103 s⁻¹ and 0.00105 s⁻¹
kon [12]: 231000 M⁻¹ s⁻¹ and 250000 M⁻¹ s⁻¹
B3: VISTA.4 A64G (41F11 Vk:A64G) (antibody, human IgG1, kappa, V domains shown)
VH: QVQLVESGGGLVKPGGSLRLSCAASGFTFSDYYMSWIRQAPGKGLEWVSYISNSGSPIYYADSVKGRFTISRDNAKNSLYLQMNSLRAEDTAVYYCARDLPGWYFDLWGRGTLVTVSS
VL: EIVLTQSPATLSLSPGERATLSCRASQSVSSYLAWYQQKPGQAPRLLIYDASNRATGIPARFSGSGSGTDFTLTISSLEPEDFAVYYCQQRNNWPRTFGQGTKVEIKR
notes: IgG1.3; also called P1-061520; P1-061520-10

— patent US20220073617A1 (Five Prime, published 2022)
